Two molecules from US20150337046A1 (published 2015) can be followed below.

This assay deals with T1, human LIGHT (hLIGHT), cell surface-expressed, full length (UniProt O43557 1-240).
T1 chain: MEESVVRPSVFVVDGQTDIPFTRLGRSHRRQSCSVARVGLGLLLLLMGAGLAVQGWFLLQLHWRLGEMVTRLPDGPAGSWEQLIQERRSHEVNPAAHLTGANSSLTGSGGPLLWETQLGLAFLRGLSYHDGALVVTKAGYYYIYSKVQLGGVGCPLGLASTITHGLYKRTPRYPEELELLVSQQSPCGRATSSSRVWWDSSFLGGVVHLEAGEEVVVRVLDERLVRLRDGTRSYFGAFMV
The experiment in a line: FACS binding; 293-hLIGHT cells.

B1: recombinant single kappa chain antibody of E1 heavy chain paired with Elkappa(B) (antibody, V domains shown)
VH: EVQLVESGGGLVQPGGSLRLSCAASGFTFSRFNMNWVRQAPGKGLEWVSYISSSSYTIYYADSVKGRFTISRDNAKNSLDLQMNSLRDEDTAVYYCARSIAAAFDYWGQGALVTVSS
VL: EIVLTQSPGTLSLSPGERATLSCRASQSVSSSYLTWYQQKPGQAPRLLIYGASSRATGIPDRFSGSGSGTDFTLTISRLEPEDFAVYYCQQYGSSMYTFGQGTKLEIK
Consider B1, for which the EC50 turned out to be 0.547 µg/mL.

B2: E1 antibody (produced by hybridoma 124 E1, ATCC Accession No. PTA-7729) (antibody, V domains shown)
VH: B1 VH
VL: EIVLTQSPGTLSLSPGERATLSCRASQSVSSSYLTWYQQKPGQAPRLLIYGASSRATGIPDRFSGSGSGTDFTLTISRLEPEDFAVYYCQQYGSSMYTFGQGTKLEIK
B2 had an EC50 of 0.463 µg/mL.
